IntAct's records for PubMed 11454208

B1: Transcriptional repressor OPI1 (Saccharomyces cerevisiae), P21957 (parent)
chain: MSENQRLGLSEEEVEAAEVLGVLKQSCRQKSQPSEDVSQADKMPASESSTTPLNILDRVSNKIISNVVTFYDEINTNKRPLKSIGRLLDDDDDEHDDYDYNDDEFFTNKRQKLSRAIAKGKDNLKEYKLNMSIESKKRLVTCLHLLKLANKQLSDKISCLQDLVEKEQVHPLHKQDGNARTTTGAGEDETSSDEDDDDEEFFDASEQVNASEQSIVVKMEVVGTVKKVYSLISKFTANSLPEPARSQVRESLLNLPTNWFDSVHSTSLPHHASFHYANCEEQKVEQQQQQQQQQQQQQLLQQQLLQQQQQKRNKDGDDSASPSSSVTANGKVLILAKESLEMVRNVMGVVDSTLGKAEEWVKQKQEVKEMIRERFLQQQQQYRQQQQKDGNYVKPSQDNVDSKD
partner: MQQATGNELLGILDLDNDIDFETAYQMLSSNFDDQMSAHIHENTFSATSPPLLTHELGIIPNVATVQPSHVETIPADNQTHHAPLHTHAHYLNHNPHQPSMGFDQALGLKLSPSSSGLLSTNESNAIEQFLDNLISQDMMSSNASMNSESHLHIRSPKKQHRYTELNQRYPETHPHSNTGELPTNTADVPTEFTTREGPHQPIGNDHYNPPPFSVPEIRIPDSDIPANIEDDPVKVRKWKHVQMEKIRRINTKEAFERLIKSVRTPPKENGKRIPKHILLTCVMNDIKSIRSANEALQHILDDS

Variants of: B1
Details: with ino2_yeast INO2, P26798

Row | effect of a mutation on the interaction | Variant
1 | decreasing interaction | L160A
